Reference: US20210347842A1 (Eli Lilly, published 2021)

Assays:
[1] = target: T1, human PD-1 (human, UniProt Q15116 21-170); experiment: bio-layer interferometry (BLI)
[2] = target: T2, cynomolgus monkey PD-1 (cynomolgus monkey, UniProt B0LAJ3 25-170); experiment: not stated in the sentence (BLI named in the next sentence), 25 C
T2 construct: construct not described; also called cynomologous monkey PD-1

[3] = target: T1, human PD-1; experiment: not stated in the sentence (BLI named in the next sentence), 25 C; 25 C; stated bound in the text

T1 sequence (Q15116 21-170 limits assumed, form in doubt): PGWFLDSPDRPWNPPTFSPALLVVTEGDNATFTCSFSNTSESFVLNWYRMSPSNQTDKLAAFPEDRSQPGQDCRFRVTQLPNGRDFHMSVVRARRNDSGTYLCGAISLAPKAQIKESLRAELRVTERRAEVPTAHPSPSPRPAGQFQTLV
T2 sequence (B0LAJ3 entry or part of it limits assumed): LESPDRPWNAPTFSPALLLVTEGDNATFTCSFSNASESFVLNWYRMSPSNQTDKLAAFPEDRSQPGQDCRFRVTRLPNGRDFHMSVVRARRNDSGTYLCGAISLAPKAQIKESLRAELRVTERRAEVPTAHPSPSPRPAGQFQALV

Kd [1]: < 0.001 nM
Kd [2]: ≤ 0.01 nM
Kd [3]: ≤ 0.01 nM
B1: AM0001 (antibody, human IgG4 S228P, lambda, V domains shown)
VH: EVQLLESGGGLVQPGGSLRLSCPASGFTFSSYAMSWVRQAPGKGLGWVSDISGGGGTTYYADSVKGRFTISRDNSKNTLYLQMNSLRGEDTAVYYCAKSGTVVTDFDYWGQGTLVTVSS
VL: SYVLTQPPSVSVAPGQTARVTCGGNSIGSYSVHWYQQKPGQAPVLVVYDDSDRPSGIPERFSGSNSGNTAALTISRVEAGDEADYYCQVWDTSSYWVFGGGTKLTVLG
notes: Monoclonal antibody with lambda 2 light chain and hinge-stabilized IgG4 (S228P) heavy chain; also called PD1-antagonist antibody
